Measurements reported in patent US20040146507A1.

Target: T1, rhesus CD11a (rhesus) (UniProt H9Z8N3)
T1 sequence: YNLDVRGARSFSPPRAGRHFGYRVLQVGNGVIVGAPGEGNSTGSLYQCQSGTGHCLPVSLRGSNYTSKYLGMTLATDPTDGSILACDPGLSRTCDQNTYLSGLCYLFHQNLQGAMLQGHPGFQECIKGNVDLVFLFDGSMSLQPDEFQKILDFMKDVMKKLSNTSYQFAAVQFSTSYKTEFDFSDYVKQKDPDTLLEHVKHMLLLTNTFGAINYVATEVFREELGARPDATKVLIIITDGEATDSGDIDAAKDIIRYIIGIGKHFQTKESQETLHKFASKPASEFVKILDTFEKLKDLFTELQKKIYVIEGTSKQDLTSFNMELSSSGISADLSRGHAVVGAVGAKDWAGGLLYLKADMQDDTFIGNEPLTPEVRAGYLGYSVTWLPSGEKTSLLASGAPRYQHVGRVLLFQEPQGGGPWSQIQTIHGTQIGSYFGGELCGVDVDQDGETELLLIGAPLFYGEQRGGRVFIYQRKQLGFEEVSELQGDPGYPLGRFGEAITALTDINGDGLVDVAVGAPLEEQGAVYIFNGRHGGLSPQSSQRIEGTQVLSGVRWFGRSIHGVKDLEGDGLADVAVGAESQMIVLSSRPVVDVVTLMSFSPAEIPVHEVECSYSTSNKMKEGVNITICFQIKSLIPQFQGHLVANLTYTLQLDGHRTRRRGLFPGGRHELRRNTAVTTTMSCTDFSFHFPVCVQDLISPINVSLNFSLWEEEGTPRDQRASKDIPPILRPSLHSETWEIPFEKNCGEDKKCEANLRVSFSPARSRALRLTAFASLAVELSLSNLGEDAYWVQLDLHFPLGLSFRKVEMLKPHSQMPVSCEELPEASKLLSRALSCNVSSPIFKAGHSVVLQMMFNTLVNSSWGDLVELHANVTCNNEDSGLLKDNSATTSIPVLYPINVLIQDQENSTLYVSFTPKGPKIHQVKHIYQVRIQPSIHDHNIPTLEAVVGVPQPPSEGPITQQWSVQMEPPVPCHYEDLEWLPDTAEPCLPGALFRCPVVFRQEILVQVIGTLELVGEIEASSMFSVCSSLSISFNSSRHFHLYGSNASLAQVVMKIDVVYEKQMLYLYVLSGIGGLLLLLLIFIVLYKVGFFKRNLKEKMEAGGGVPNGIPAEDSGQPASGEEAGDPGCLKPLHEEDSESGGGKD
Assay: rhesus PBL binding

B1: HuIgG1 mutant SerL52Ala (antibody, V domains shown)
VH: EVQLVESGGGLVQPGGSLRLSCAASGYSFTGHWMNWVRQAPGKGLEWVGMIHPSDSETRYNQKFKDRFTISVDKSKNTLYLQMNSLRAEDTAVYYCARGIYFYGTTYFDYWGQGTLVTVSS
VL: DIQMTQSPSSLSASVGDRVTITCRASKTISKYLAWYQQKPGKAPKLLIYSGATLQSGVPSRFSGSGSGTDFTLTISSLQPEDFATYYCQQHNEYPLTFGQGTKVEIKR
For B1, the Var.EC50/HuIgG1 EC50 was 13.3.
